# Experimental data taken from article PMC7967050.
# B1: anti-CD38 scFv antibody RP02 (scFv, V domains shown)
# VH: PAQLVESGPGLVKPSGTLSLTCAVSGGSISSSNWWSWVRQPPGKGLEWIGEIYHSGSTNYNPSLKSRVTISVDKSKNQFSLKLSSVTAADTAVYYCAREDYYYYMDVWGKGTTVTVQS
# VL: QSVLTQPPSVSAAPGQKVTISCSGSSSNIGNNYVSWYQQLPGTAPKLLIYDNNKRPSGIPDRFSGSKSGTSATLGITGLQTGDEADYYCGTWDSSLSAGVFGGGTKLTVL
# Molecular target: Recombinant human CD38 extracellular domain (amino acids 43–300, hCD38-ECD) (human) (UniProt P28907)
# Test: BLI; Octet Red96, room temperature; biotin conjugated hCD38-ECD captured on SA biosensor; scFv in PBS, 0.02% Tween-20, 0.05% BSA, pH 7.4; association 300 s, dissociation 1200 s; 1:1 Langmuir model; for RP02 (biphasic dissociation) only the initial 0-330 s fitted, apparent KD
binder,measurement,value
B1,Kd,8.6 nM
